Tests used:
[1] = biological target: the molecule itself; test: SEC; purified recombinant AGT variants; single peak, elution volume of a ≈90 kDa dimer; data not shown
[2] = substrate: C[C@H](N)C(=O)O; test: LDH-coupled pyruvate assay, global double-displacement fit; format: biochemical, Homo sapiens; settings: glyoxylate 0-5 mM, 150 µM PLP, 0.1 M Na-phosphate pH 8, 25°C
Text: (§1) LDH-coupled pyruvate assay, global double-displacement fit on alanine:glyoxylate aminotransferase (AGT), AGT WT (major allele)

[3] = substrate: O=CC(=O)O; test: as above; format: biochemical, Homo sapiens; settings: L-alanine 0-100 mM, 150 µM PLP, 0.1 M Na-phosphate pH 8, 25°C
Text: as §1

Protein | stoichiometry N [1] | Km [2] | Km [3]
alanine:glyoxylate aminotransferase p.H83R on the minor allele, recombinant His-tagged (enzyme, human, UniProt P21549 1-392, looked up, alanine:glyoxylate aminotransferase (AGT), human, PH1 mutation p.H83R in the minor allele; source: E. coli BL21 (pCOLDII), purified (IMAC, SEC)) MASHKLLVTPLKALLKPLSIPNQLLLGPGPSNLPPRIMAAGGLQMIGSMSKDMYQIMDEIKEGIQYVFQTRNPLTLVISGSGRCALEAALVNVLEPGDSFLVGANGIWGQRAVDIGERIGARVHPMTKDPGGHYTLQEVEEGLAQHKPVLLFLTHGESSTGVLQPLDGFGELCHRYKCLLLVDSVASLGGTPLYMDRQGIDILYSGSQKALNAPPGTSLISFSDKAKKKMYSRKTKPFSFYLDIKWLANFWGCDDQPRMYHHTIPVISLYSLRESLALIAEQGLENSWRQHREAAAYLHGRLQALGLQLFVKDPALRLPTVTTVAVPAGYDWRDIVSYVMDHFDIEIMGGLGPSTGKVLRIGLLGCNATRENVDRVTEALRAALQHCPKKKL | 2 | 42.4 ± 2.4 mM | 0.156 ± 0.019 mM
alanine:glyoxylate aminotransferase p.A295T on the minor allele, recombinant His-tagged (enzyme, human, UniProt P21549 1-392, looked up, alanine:glyoxylate aminotransferase (AGT), human, rare variant p.A295T in the minor allele; source: E. coli BL21 (pCOLDII), purified (IMAC, SEC)) MASHKLLVTPLKALLKPLSIPNQLLLGPGPSNLPPRIMAAGGLQMIGSMSKDMYQIMDEIKEGIQYVFQTRNPLTLVISGSGHCALEAALVNVLEPGDSFLVGANGIWGQRAVDIGERIGARVHPMTKDPGGHYTLQEVEEGLAQHKPVLLFLTHGESSTGVLQPLDGFGELCHRYKCLLLVDSVASLGGTPLYMDRQGIDILYSGSQKALNAPPGTSLISFSDKAKKKMYSRKTKPFSFYLDIKWLANFWGCDDQPRMYHHTIPVISLYSLRESLALIAEQGLENSWRQHREATAYLHGRLQALGLQLFVKDPALRLPTVTTVAVPAGYDWRDIVSYVMDHFDIEIMGGLGPSTGKVLRIGLLGCNATRENVDRVTEALRAALQHCPKKKL | 2 |  | 
alanine:glyoxylate aminotransferase p.R197Q on the minor allele, recombinant His-tagged (enzyme, human, UniProt P21549 1-392, looked up, alanine:glyoxylate aminotransferase (AGT), human, rare variant p.R197Q in the minor allele; source: E. coli BL21 (pCOLDII), purified (IMAC, SEC)) MASHKLLVTPLKALLKPLSIPNQLLLGPGPSNLPPRIMAAGGLQMIGSMSKDMYQIMDEIKEGIQYVFQTRNPLTLVISGSGHCALEAALVNVLEPGDSFLVGANGIWGQRAVDIGERIGARVHPMTKDPGGHYTLQEVEEGLAQHKPVLLFLTHGESSTGVLQPLDGFGELCHRYKCLLLVDSVASLGGTPLYMDQQGIDILYSGSQKALNAPPGTSLISFSDKAKKKMYSRKTKPFSFYLDIKWLANFWGCDDQPRMYHHTIPVISLYSLRESLALIAEQGLENSWRQHREAAAYLHGRLQALGLQLFVKDPALRLPTVTTVAVPAGYDWRDIVSYVMDHFDIEIMGGLGPSTGKVLRIGLLGCNATRENVDRVTEALRAALQHCPKKKL | 2 |  | 
alanine:glyoxylate aminotransferase p.G170R on the minor allele, recombinant His-tagged (enzyme, human, UniProt P21549 1-392, looked up, alanine:glyoxylate aminotransferase (AGT), human, PH1 mutation p.G170R in the minor allele (p.P11L, p.G170R and p.I340M in cis); source: E. coli BL21 (pCOLDII), purified (IMAC, SEC)) MASHKLLVTPLKALLKPLSIPNQLLLGPGPSNLPPRIMAAGGLQMIGSMSKDMYQIMDEIKEGIQYVFQTRNPLTLVISGSGHCALEAALVNVLEPGDSFLVGANGIWGQRAVDIGERIGARVHPMTKDPGGHYTLQEVEEGLAQHKPVLLFLTHGESSTGVLQPLDGFRELCHRYKCLLLVDSVASLGGTPLYMDRQGIDILYSGSQKALNAPPGTSLISFSDKAKKKMYSRKTKPFSFYLDIKWLANFWGCDDQPRMYHHTIPVISLYSLRESLALIAEQGLENSWRQHREAAAYLHGRLQALGLQLFVKDPALRLPTVTTVAVPAGYDWRDIVSYVMDHFDIEIMGGLGPSTGKVLRIGLLGCNATRENVDRVTEALRAALQHCPKKKL | 2 |  | 
alanine:glyoxylate aminotransferase p.P11L, recombinant His-tagged (enzyme, human, UniProt P21549 1-392, looked up, alanine:glyoxylate aminotransferase (AGT), human, polymorphic variant p.P11L; source: E. coli BL21 (pCOLDII), purified (IMAC, SEC)) MASHKLLVTPLKALLKPLSIPNQLLLGPGPSNLPPRIMAAGGLQMIGSMSKDMYQIMDEIKEGIQYVFQTRNPLTLVISGSGHCALEAALVNVLEPGDSFLVGANGIWGQRAVDIGERIGARVHPMTKDPGGHYTLQEVEEGLAQHKPVLLFLTHGESSTGVLQPLDGFGELCHRYKCLLLVDSVASLGGTPLYMDRQGIDILYSGSQKALNAPPGTSLISFSDKAKKKMYSRKTKPFSFYLDIKWLANFWGCDDQPRMYHHTIPVISLYSLRESLALIAEQGLENSWRQHREAAAYLHGRLQALGLQLFVKDPALRLPTVTTVAVPAGYDWRDIVSYVIDHFDIEIMGGLGPSTGKVLRIGLLGCNATRENVDRVTEALRAALQHCPKKKL | 2 |  | 
alanine:glyoxylate aminotransferase minor allele (p.P11L/I340M), recombinant His-tagged (enzyme, human, UniProt P21549 1-392, looked up, alanine:glyoxylate aminotransferase (AGT), human, minor allele; also called AGT LM; LM; source: E. coli BL21 (pCOLDII), purified (IMAC, SEC)) MASHKLLVTPLKALLKPLSIPNQLLLGPGPSNLPPRIMAAGGLQMIGSMSKDMYQIMDEIKEGIQYVFQTRNPLTLVISGSGHCALEAALVNVLEPGDSFLVGANGIWGQRAVDIGERIGARVHPMTKDPGGHYTLQEVEEGLAQHKPVLLFLTHGESSTGVLQPLDGFGELCHRYKCLLLVDSVASLGGTPLYMDRQGIDILYSGSQKALNAPPGTSLISFSDKAKKKMYSRKTKPFSFYLDIKWLANFWGCDDQPRMYHHTIPVISLYSLRESLALIAEQGLENSWRQHREAAAYLHGRLQALGLQLFVKDPALRLPTVTTVAVPAGYDWRDIVSYVMDHFDIEIMGGLGPSTGKVLRIGLLGCNATRENVDRVTEALRAALQHCPKKKL | 2 | 19.8 ± 1.5 mM | 
alanine:glyoxylate aminotransferase p.I244T on the minor allele, recombinant His-tagged (enzyme, human, UniProt P21549 1-392, looked up, alanine:glyoxylate aminotransferase (AGT), human, PH1 mutation p.I244T in the minor allele (p.P11L, p.I244T and p.I340M in cis); source: E. coli BL21 (pCOLDII), purified (IMAC, SEC)) MASHKLLVTPLKALLKPLSIPNQLLLGPGPSNLPPRIMAAGGLQMIGSMSKDMYQIMDEIKEGIQYVFQTRNPLTLVISGSGHCALEAALVNVLEPGDSFLVGANGIWGQRAVDIGERIGARVHPMTKDPGGHYTLQEVEEGLAQHKPVLLFLTHGESSTGVLQPLDGFGELCHRYKCLLLVDSVASLGGTPLYMDRQGIDILYSGSQKALNAPPGTSLISFSDKAKKKMYSRKTKPFSFYLDTKWLANFWGCDDQPRMYHHTIPVISLYSLRESLALIAEQGLENSWRQHREAAAYLHGRLQALGLQLFVKDPALRLPTVTTVAVPAGYDWRDIVSYVMDHFDIEIMGGLGPSTGKVLRIGLLGCNATRENVDRVTEALRAALQHCPKKKL | 2 |  | 
alanine:glyoxylate aminotransferase p.I340M, recombinant His-tagged (enzyme, human, alanine:glyoxylate aminotransferase (AGT), human, polymorphic variant p.I340M; Crystallised here (PDB 2YOB); source: E. coli BL21 (pCOLDII), purified (IMAC, SEC)) MASHKLLVTPPKALLKPLSIPNQLLLGPGPSNLPPRIMAAGGLQMIGSMSKDMYQIMDEIKEGIQYVFQTRNPLTLVISGSGHCALEAALVNVLEPGDSFLVGANGIWGQRAVDIGERIGARVHPMTKDPGGHYTLQEVEEGLAQHKPVLLFLTHGESSTGVLQPLDGFGELCHRYKCLLLVDSVASLGGTPLYMDRQGIDILYSGSQKALNAPPGTSLISFSDKAKKKMYSRKTKPFSFYLDIKWLANFWGCDDQPRMYHHTIPVISLYSLRESLALIAEQGLENSWRQHREAAAYLHGRLQALGLQLFVKDPALRLPTVTTVAVPAGYDWRDIVSYVMDHFDIEIMGGLGPSTGKVLRIGLLGCNATRENVDRVTEALRAAL | 2 |  | 

— paper PMC3796444 (PLoS ONE, 2013)
